Columns and labels:
Format in all cases: in vivo
C57BL/6J mice [1] = test: Airway hyper-responsiveness (AHR) with FlexiVent system in APO-induced asthma model; conditions: 50 uL of 1 mg/ml, 1 h before allergen challenge; in comparison with control ferritin; FIG. 17a
Description: (§1) Wild-type C57BL/6J mice were purchased from Jackson Laboratory (Bar Harbor, Me., USA), and bred in a pathogen-free animal facility. All animals were fed with a normal diet (PMI Lab Diet) with free access to water. 6-8-week-old female mice were used for this study. Animal care and experimental procedures were performed with the approval of the Animal Care Committee of KAIST.
(§2) Asthma induction was performed by the existing method (Corry D B, Folkesson H G, Warnock M L, Erle D J, Matthay M A, et al. (1996) J Exp Med 183: 109117).
Briefly, Aspergillus oryzae protease (1 mg/mL in PBS, Sigma-Aldrich) and chicken egg ovalbumin (OVA, 0.5 mg/mL in PBS, Sigma-Aldrich) allergen (APO) were mixed 1:9 (v/v) immediately before administration. Mice received four intraperitoneal sensitizations and the intranasal challenge every 4 days (0, 4, 8, 12, 16) with 50 uL of allergen. For intranasal challenge, mice were lightly anesthetized with isoflurane inhalation (Abbott Laboratory, Abbott Park, Ill., USA). A 50 uL of AP1-retaining ferritin cage (GG-AP1L, 157cysAP1-PBNC) or AP1-not-inserted ferritin cage (wt FTL), which was diluted to 1 mg/ml in PBS, was administered 1 h before allergen challenge. […]
Briefly, 16 h after final intranasal challenge, AHR was measured with a FlexiVent system (SCIREQ Inc., Montreal, Canada). […]

C57BL/6J mice [2] = test: BAL cytology in APO-induced asthma model; conditions: 50 uL of 1 mg/ml, 1 h before allergen challenge; in comparison with control ferritin
Description: as §1, §2
(§3) Briefly, Aspergillus oryzae protease (1 mg/mL in PBS, Sigma-Aldrich) and chicken egg ovalbumin (OVA, 0.5 mg/mL in PBS, Sigma-Aldrich) allergen (APO) were mixed 1:9 (v/v) immediately before administration. Mice received four intraperitoneal sensitizations and the intranasal challenge every 4 days (0, 4, 8, 12, 16) with 50 uL of allergen. For intranasal challenge, mice were lightly anesthetized with isoflurane inhalation (Abbott Laboratory, Abbott Park, Ill., USA). A 50 uL of AP1-retaining ferritin cage (GG-AP1L, 157cysAP1-PBNC) or AP1-not-inserted ferritin cage (wt FTL), which was diluted to 1 mg/ml in PBS, was administered 1 h before allergen challenge.
For phenotypes of allergic asthma, AHR, BAL cytology, BAL glycoprotein assay, and lung histopathology were performed by the existing method (Lee, S. H., et al. (2003) Nat. Med. 9, 128111286). […]

C57BL/6J mice [3] = test: Secreted glycoprotein in BAL fluid (modified ELISA) in APO-induced asthma model; conditions: 50 uL of 1 mg/ml, 1 h before allergen challenge; FIG. 17d
Description: as §1
Briefly, Aspergillus oryzae protease (1 mg/mL in PBS, Sigma-Aldrich) and chicken egg ovalbumin (OVA, 0.5 mg/mL in PBS, Sigma-Aldrich) allergen (APO) were mixed 1:9 (v/v) immediately before administration. Mice received four intraperitoneal sensitizations and the intranasal challenge every 4 days (0, 4, 8, 12, 16) with 50 uL of allergen. […]
Levels of secreted glycoprotein were measured with modified ELISA by the existing method (Lee, S. H. et al., (2004) J. Allergy Clin. Immunol. 113, 72778.). […]
40 ul of each sample was transferred to an ELSA plate Greiner, Kremsmunster, Austria), and incubated at 37° C. for 2 h. […] After final washing upon the completion of the reaction, 70 ul of alkaline phosphatase substrate (5 mmol in 0.1 mol/L alkaline buffer, Sigma-Aldrich) was added, and developed until a mucin standard curve was readily apparent. After termination of the reaction with addition of 40 ul of 0.5 N sodium hydroxide, optical density was measured at 405 nm by an ELISA reader (BioRad, Hercules, Calif., USA).

C57BL/6J mice [4] = test: Lung microstructure observation (PAS-stained lung slides) in APO-induced asthma model
Description: as §1, §3
Finally, the experimental mice were sacrificed, and lung slide specimens stained with periodic acid Schiff (PAS) were prepared. Then, changes of inflammatory cells and goblet cells were observed (arrowhead: mucin-positive goblet cell, arrow: inflammatory cell).

B1: GG-AP1L: human ferritin light chain having AP1L (CRKRLDRNC) inserted in GG cassette; AP1-retaining ferritin cage used in asthma model (protein)
chain: MSSQIRQNYSTDVEAAVNSLVNLYLQASYTYLSLGFYFDRDDVALEGVSHFFRELAEEKREGYERLLKMQNQRGGRALFQDIKKPAEDEWGKTPDAMKAAMALEKKLNQALLDLHALGSARTDPHLCDFLETHFLDEEVKLIKKMGDHLTNLHRGSCRKRLDRNCGGPEAGLGEYLFERLTLKHD
modifications: left off: small tags and cut ends
notes: AP1-retaining ferritin cage used in asthma model
C57BL/6J mice [1]
  airway hyper-responsiveness (AHR): significantly suppressed
C57BL/6J mice [2]
  count of eosinophils in BAL fluid: significantly decreased
  count of inflammation cells in bronchoalveolar lavage (BAL) fluid: significantly decreased
C57BL/6J mice [3]
  amount of secreted glycoprotein in BAL fluid: significantly reduced
C57BL/6J mice [4]
  counts of mucus-producing goblet cells: significantly reduced
  counts of peribronchial inflammatory cells: significantly reduced

Reference: patent publication US9920105B2, “Human ferritin-derived fusion polypeptide” (Kyungpook National University Industry-Academic Cooperation …, priority 2013, dated 2018)
